What was measured:
[1] = molecular target: EBNA2 fragment residues 381–445 (EBNA2_(381–445)) (Epstein-Barr virus, strain B95-8) (UniProt P12978); experiment: ITC
[2] = molecular target: BS69 MYND domain (BS69_(MYND), residues 516–562) (mouse); experiment: ITC; peptide (~1 mM) titrated into BS69_(MYND) or BS69_(CC-MYND) (~0.1 mM) at 5°C; 20 mM Tris-HCl pH 7.5, 100 mM NaCl, 2 mM DTT; one-site fitting model
[3] = molecular target: BS69/ZMYND11 coiled-coil-MYND tandem domains (BS69_(CC-MYND), residues 440–562) (mouse); experiment: as above
[4] = molecular target: BS69_(MYND) R560A (mouse); experiment: as above
[5] = molecular target: BS69_(MYND) Y532A (mouse); experiment: as above
[6] = molecular target: flag-tagged BS69_(CC-MYND) Q546A (mouse); experiment: co-IP
[7] = molecular target: flag-tagged BS69_(CC-MYND) Q546A/W550A (mouse); experiment: co-IP
[8] = molecular target: EBNA2 PXLXP2 mutant (Epstein-Barr virus, strain W91) (UniProt P12978)
[9] = molecular target: Epstein-Barr virus nuclear antigen 2 (EBNA2), expressed from a plasmid (Epstein-Barr virus, strain W91) (UniProt P12978)

## BS69/ZMYND11 coiled-coil-MYND tandem domains (BS69_(CC-MYND), residues 440–562) (domain or fragment)
[1]
  Kd: 0.24 µM

## EBNA2_(381–389) peptide with an additional Gly-Tyr dipeptide at the C-terminus (NH2-[…]-CONH2)
[2]
  Kd: 25.6 µM
[3]
  Kd: 7.4 µM
[4]
  fold decrease of binding against wild-type BS69 (MYND): 10 fold
[5]
  fold decrease of binding against wild-type BS69 (MYND): 3 fold

## Epstein-Barr virus nuclear antigen 2 (EBNA2), expressed from a plasmid (from UniProt P12978 1-487) (natural protein)
[6]
  percent reduction of EBNA2 binding against wild type: 50%
[7]
  percent reduction of EBNA2 binding against wild type: 85%

## flag-tagged wild-type BS69_(CC-MYND) (domain or fragment)
[8]
  BS69 inhibition of the LMP1-Luc reporter activated by the EBNA2 PXLXP2 mutant: 50%
[9]
  EBNA2 activation of the LMP1-Luc or Cp-Luc reporter in BJAB cells in the presence of wild-type BS69 (CC-MYND) (around 10-fold without BS69): < 2 fold
